B1: Thialysine N-epsilon-acetyltransferase (Homo sapiens), Q96F10 (parent)
chain: MASVRIREAKEGDCGDILRLIRELAEFEKLSDQVKISEEALRADGFGDNPFYHCLVAEILPAPGKLLGPCVVGYGIYYFIYSTWKGRTIYLEDIYVMPEYRGQGIGSKIIKKVAEVALDKGCSQFRLAVLDWNQRAMDLYKALGAQDLTEAEGWHFFCFQGEATRKLAGK
B2: TNFAIP3-interacting protein 3 (Homo sapiens), Q96KP6 (parent)
chain: MAHFVQGTSRMIAAESSTEHKECAEPSTRKNLMNSLEQKIRCLEKQRKELLEVNQQWDQQFRSMKELYERKVAELKTKLDAAERFLSTREKDPHQRQRKDDRQREDDRQRDLTRDRLQREEKEKERLNEELHELKEENKLLKGKNTLANKEKEHYECEIKRLNKALQDALNIKCSFSEDCLRKSRVEFCHEEMRTEMEVLKQQVQIYEEDFKKERSDRERLNQEKEELQQINETSQSQLNRLNSQIKACQMEKEKLEKQLKQMYCPPCNCGLVFHLQDPWVPTGPGAVQKQREHPPDYQWYALDQLPPDVQHKANGLSSVKKVHP
B3: Keratin-associated protein 3-2 (Homo sapiens), Q9BYR7 (parent)
chain: MDCCASRSCSVPTGPATTICSSDKSCRCGVCLPSTCPHTVWLLEPICCDNCPPPCHIPQPCVPTCFLLNSCQPTPGLETLNLTTFTQPCCEPCLPRGC
partner: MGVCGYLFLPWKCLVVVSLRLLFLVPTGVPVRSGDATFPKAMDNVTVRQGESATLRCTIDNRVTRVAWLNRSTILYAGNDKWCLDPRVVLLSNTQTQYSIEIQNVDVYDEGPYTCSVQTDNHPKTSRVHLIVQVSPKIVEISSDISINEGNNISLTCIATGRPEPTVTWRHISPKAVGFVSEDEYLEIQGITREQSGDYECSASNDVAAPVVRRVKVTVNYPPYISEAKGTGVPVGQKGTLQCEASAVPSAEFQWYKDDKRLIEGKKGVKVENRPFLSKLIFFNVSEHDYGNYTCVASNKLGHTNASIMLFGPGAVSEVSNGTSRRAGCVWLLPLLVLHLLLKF
B4: Maspardin (Homo sapiens), Q9NZD8 (parent)
chain: MGEIKVSPDYNWFRGTVPLKKIIVDDDDSKIWSLYDAGPRSIRCPLIFLPPVSGTADVFFRQILALTGWGYRVIALQYPVYWDHLEFCDGFRKLLDHLQLDKVHLFGASLGGFLAQKFAEYTHKSPRVHSLILCNSFSDTSIFNQTWTANSFWLMPAFMLKKIVLGNFSSGPVDPMMADAIDFMVDRLESLGQSELASRLTLNCQNSYVEPHKIRDIPVTIMDVFDQSALSTEAKEEMYKLYPNARRAHLKTGGNFPYLCRSAEVNLYVQIHLLQFHGTKYAAIDPSMVSAEELEVQKGSLGISQEEQ
partner: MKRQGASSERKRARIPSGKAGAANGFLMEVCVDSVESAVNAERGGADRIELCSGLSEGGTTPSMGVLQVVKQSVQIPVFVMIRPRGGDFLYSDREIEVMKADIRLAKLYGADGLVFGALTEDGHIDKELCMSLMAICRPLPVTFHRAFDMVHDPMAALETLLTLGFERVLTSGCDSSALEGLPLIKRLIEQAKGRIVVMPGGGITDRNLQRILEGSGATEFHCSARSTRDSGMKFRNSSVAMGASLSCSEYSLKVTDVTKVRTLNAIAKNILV
B5: Activated CDC42 kinase 1 (Homo sapiens), Q07912-2 (parent)
chain: MQPEEGTGWLLELLSEVQLQQYFLRLRDDLNVTRLSHFEYVKNEDLEKIGMGRPGQRRLWEAVKRRKALCKRKSWMSKVFSGKRLEAEFPPHHSQSTFRKTSPAPGGPAGEGPLQSLTCLIGEKDLRLLEKLGDGSFGVVRRGEWDAPSGKTVSVAVKCLKPDVLSQPEAMDDFIREVNAMHSLDHRNLIRLYGVVLTPPMKMVTELAPLGSLLDRLRKHQGHFLLGTLSRYAVQVAEGMGYLESKRFIHRDLAARNLLLATRDLVKIGDFGLMRALPQNDDHYVMQEHRKVPFAWCAPESLKTRTFSHASDTWMFGVTLWEMFTYGQEPWIGLNGSQILHKIDKEGERLPRPEDCPQDIYNVMVQCWAHKPEDRPTFVALRDFLLEAQPTDMRALQDFEEPDKLHIQMNDVITVIEGRAENYWWRGQNTRTLCVGPFPRNVVTSVAGLSAQDISQPLQNSFIHTGHGDSDPRHCWGFPDRIDECPFSAFSPGHPPAETCGQVLWTGRREACASDPRLHPVSSRTKGL
partner: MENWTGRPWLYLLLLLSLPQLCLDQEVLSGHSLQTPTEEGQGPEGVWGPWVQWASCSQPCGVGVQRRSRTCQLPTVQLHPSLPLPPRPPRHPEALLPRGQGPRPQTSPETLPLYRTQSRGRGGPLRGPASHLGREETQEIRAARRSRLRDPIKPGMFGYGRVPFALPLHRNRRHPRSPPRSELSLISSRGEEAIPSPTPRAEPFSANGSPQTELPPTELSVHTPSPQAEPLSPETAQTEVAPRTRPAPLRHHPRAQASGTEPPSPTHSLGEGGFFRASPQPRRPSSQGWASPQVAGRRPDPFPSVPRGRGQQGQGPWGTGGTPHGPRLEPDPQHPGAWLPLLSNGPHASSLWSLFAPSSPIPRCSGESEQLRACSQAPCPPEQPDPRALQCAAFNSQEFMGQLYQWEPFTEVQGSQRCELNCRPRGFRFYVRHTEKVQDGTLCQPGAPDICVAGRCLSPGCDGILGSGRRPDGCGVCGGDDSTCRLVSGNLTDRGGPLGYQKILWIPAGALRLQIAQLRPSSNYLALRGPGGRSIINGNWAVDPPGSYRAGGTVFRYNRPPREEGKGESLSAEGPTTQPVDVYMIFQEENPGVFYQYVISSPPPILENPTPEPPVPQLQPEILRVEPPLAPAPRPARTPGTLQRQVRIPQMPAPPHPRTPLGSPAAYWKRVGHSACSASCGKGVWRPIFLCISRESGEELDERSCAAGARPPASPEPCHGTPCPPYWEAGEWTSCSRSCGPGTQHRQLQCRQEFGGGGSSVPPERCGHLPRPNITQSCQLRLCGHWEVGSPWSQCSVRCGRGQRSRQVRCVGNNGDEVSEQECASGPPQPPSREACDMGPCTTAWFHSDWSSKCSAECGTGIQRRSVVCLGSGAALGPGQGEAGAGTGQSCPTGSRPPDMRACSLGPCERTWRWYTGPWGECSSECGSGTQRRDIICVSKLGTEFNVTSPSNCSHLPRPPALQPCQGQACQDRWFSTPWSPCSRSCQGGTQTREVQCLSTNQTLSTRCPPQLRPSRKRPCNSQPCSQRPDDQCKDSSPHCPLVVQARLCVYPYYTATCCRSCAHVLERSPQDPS
B6: Elongin-A2 (Homo sapiens), Q8IYF1 (parent)
chain: MAAGSTTLHAVEKLQVRLATKTEPKKLEKYLQKLSALPMTADILAETGIRKTVKRLRKHQHVGDFARDLAARWKKLVLVDRNTRPGPQDPEESASRQRFGEALQDQEKAWGFPENATAPRSPSHSPEHRRTARRTPPGQQRPHPRSHSREPRAERKCPRIAPADSGRYRASPTRTAPLRMPEGPEPAAPGKQPGRGHTHAAQGGPLLCPGCQGQPQGKAVVSHSKGHKSSRQEKRPLCAQGDWHSPTLIREKSCGACLREETPRMPSWASARDRQPSDFKTDKEGGQAGSGQRVPALEEAPDSHQKRPQHSHSNKKRPSLDGRDPGNGTHGLSPEEKEQLSNDRETQEGKPPTAHLDRTSVSSLSEVEEVDMAEEFEQPTLSCEKYLTYDQLRKQKKKTGKSATTALGDKQRKANESKGTRESWDSAKKLPPVQESQSERLQAAGADSAGPKTVPSHVFSELWDLSEAWMQANYDPLSDSDSMTSQAKPEALSSPKFREEAAFPGRRVNAKMPVYSGSRPACQLQVPTLRQQCAQVLRNNPDALSDVGEVPYWVLEPVLEGWRPDQLYRRKKDNHALVRETDELRRNHCFQDFKEEKPQENKTWREQYLRLPDAPEQRLRVMTTNIRSARGNNPNGREAKMICFKSVAKTPYDTSRRQEKSAGDADPENGEIKPASKPAGSSHTPSSQSSSGGGRDSSSSILRWLPEKRANPCLSSSNEHAAPAAKTRKQAAKKVAPLMAKAIRDYKRRFSRR
partner: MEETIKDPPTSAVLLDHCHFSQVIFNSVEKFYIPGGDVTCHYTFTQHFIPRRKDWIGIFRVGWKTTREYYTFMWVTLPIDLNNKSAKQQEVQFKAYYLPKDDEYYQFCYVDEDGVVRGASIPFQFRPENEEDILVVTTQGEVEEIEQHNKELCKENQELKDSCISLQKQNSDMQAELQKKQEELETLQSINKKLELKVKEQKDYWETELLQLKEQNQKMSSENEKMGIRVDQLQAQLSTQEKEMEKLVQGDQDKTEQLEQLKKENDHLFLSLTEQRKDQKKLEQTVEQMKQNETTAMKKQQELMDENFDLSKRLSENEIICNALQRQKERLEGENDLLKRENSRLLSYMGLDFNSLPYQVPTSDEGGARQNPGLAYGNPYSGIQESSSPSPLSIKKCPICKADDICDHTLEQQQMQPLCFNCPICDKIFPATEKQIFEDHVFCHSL

Variants of: B1
Conditions: with sat1_human SAT1, P21673
sat1_human SAT1, P21673, sequence (P21673 whole entry): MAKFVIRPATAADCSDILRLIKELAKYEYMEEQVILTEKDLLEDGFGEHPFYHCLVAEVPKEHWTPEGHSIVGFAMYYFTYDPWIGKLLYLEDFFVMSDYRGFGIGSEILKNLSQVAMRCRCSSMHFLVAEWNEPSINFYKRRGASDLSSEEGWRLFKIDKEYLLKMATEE

Variant | effect of a mutation on the interaction
R126C | disrupting interaction strength

Variants of: B2
Conditions: with taxb1_human TAX1BP1, Q86VP1
taxb1_human TAX1BP1, Q86VP1, sequence (Q86VP1 whole entry): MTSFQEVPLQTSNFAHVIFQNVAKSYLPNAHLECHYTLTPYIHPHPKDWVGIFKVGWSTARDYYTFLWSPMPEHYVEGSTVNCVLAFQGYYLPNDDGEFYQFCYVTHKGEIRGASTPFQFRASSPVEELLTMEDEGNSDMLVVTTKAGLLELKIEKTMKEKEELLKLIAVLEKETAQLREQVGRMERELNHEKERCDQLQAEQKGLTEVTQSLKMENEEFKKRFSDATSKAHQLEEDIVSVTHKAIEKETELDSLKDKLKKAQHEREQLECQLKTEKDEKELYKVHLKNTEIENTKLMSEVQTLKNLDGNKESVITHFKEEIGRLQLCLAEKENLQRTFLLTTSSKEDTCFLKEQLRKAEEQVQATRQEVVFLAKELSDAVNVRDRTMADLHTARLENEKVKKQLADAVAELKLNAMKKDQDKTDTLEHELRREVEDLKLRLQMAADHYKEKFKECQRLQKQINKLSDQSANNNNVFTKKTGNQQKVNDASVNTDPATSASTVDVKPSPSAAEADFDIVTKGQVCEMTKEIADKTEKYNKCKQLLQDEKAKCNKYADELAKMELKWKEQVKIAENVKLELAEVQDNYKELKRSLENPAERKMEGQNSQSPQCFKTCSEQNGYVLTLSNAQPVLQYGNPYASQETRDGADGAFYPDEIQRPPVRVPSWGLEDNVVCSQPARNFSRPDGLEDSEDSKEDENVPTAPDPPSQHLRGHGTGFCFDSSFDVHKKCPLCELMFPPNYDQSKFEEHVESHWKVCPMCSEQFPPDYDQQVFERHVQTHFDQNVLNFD

Variant | effect of a mutation on the interaction
K99E | with no effect

Variants of: B3
Conditions: with ntri_human NTM

Variant | effect of a mutation on the interaction
R27C | with no effect
S8G | with no effect

Variants of: B4
Conditions: with cutc_human CUTC

Variant | effect of a mutation on the interaction
A180T | with no effect
H272D | disrupting interaction strength

Variants of: B5
Conditions: with atl4_human ADAMTSL4, Q6UY14

Variant | effect of a mutation on the interaction
R34L | with no effect

Variants of: B6
Conditions: with caco2_human CALCOCO2, Q13137

Variant | effect of a mutation on the interaction
C254F | with no effect
T6S | with no effect
G505R | disrupting interaction strength
R179P | with no effect
R498Q | with no effect
